Laboratory results published in the supplement of paper PMC12042874.
± gives the uncertainty stated by the source.

Test: amyloid nucleation score (Sup35N fusion, yeast selection) (log enrichment); library NNK3; higher = more nucleation; inactive = no reads after selection
Outline: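 Using DiMSum, nucleation scores were taken as the log enrichment of output over input reads, centred on the mode score of non-aggregating sequences. The input and output reads came from Illumina sequencing of plasmid inserts, with sequences under 100 input reads excluded. The yeast were psi-negative, expressed Sup35N fused to peptides of 20 random codons, were induced with 100 μM copper sulfate for 24 hours, and were grown 7 days at 30°C on medium lacking adenine and uracil.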

Amyloid nucleation score, 0.294 ± 0.21:
GVNVTKVFTFRMVSCGPDDF

Amyloid nucleation score, 0.079 ± 0.81:
HGMPMVAFITFVVNIRGLCD

Amyloid nucleation score, inactive:
GSSRSGKGHCMLRVSVFYCV
GSTGVIDDLSKVHCGGMCVD
GSTSRIPGVLVSKRRANMQH
GSTVEYTFGDWKYQDMSSVC
GSTYTVGSAGSSMTTRDLDM
GSVQTHFLDYGCSPNMDMLV
GSYTLYFVIWLFHIRFYGTR
GTIMMWLGVQRVLTASGKGG
GTNDDESRRRRREWD
GTNIFVKTDTYCPFICST
GTRIGEIRLASFGSVRGFNV
GTYLGELVTGLTPGRCPGHF
GTYLVSDAAGFYSWYLHYSF
GTYVKLLEVFTSFSWFRRFF
GVDCQASILHPCLFF
GVDFEDQPSSQDFLYSARYL
GVFDYTYGRLVAVFKGFGNY
GVFVEIRILYKGKWYTCMSK
GVGNKGSTKNLEQVTASVVV
GVKGFQRQKRIFFGFCEFKV
GVPMCSWGMIILL
GVSNRHGGTIYRQRAMHSVG
GVWRLSVYT
GWGPGARGGLEDRGDCVCFL
GWLLRCVSTLGGLKTLLC
GYLLTVLLLSMFNSFDNDWL
GYMGVGRIVSA
GYNNVESGNKYMLEDDFAFS
GYQDAFIP
GYRRKNRHSWTDPGITALNK
GYWWELSSKVNVCAMMHRPW
HAEFSEHITCGGSGPSCFVG
HAFRVSLSLVVVCCVIWDTN
HANRSCCLPCIHLPFSRVLS
HCLLCNYRLWSACKCPGYVS
HCRDEYYIYNRI
HEKSIRVESMAVLIRPVTRS
HFIKGGLHCVS
HFSKHTVTNRPYDVHNLGKC
HGDVCMNMGYNRT
HGFERSRSGNRSGLIDDLGC
HGFFNLWWRARLHLAPLHHH
HGGCC
HGWSS
HGWYSVFADSRRYCKRVRYT
HHLGRSLGIVTSLQLGIILL
HIFHQIKANDHAIFLGNVSG
HIKKRYKLLAMLLMSDLR
HIRRCEVTNTF

Amyloid nucleation score, 1.47 ± 0.11:
HFSLGLVMYLCSLGNVRP

Amyloid nucleation score, 1.84 ± 0.078:
HHAVYIVVRMADKACDWGCC

Amyloid nucleation score, 0.49 ± 0.27:
HIEVCGTLLYCGDRQISVNN

Amyloid nucleation score, 0.623 ± 0.15:
HFARDPLSERSKFPLIF

Amyloid nucleation score, -0.272 ± 0.43:
GTDVRS

Amyloid nucleation score, 1.62 ± 0.092:
HINISFISYYRRRMYYNVCG

Amyloid nucleation score, 1.51 ± 0.096:
HITCVMSIKTRGLRMTERGS

Amyloid nucleation score, 0.468 ± 0.2:
HIRFWSDNRT

Amyloid nucleation score, 1.28 ± 0.15:
HFQCLMSVRSGSNQTRDILL

Amyloid nucleation score, 1.99 ± 0.1:
HCHDVGVLLIKFCNNLWCSH

Amyloid nucleation score, -0.029 ± 1.1:
HAQCLMSIIEVS

Amyloid nucleation score, 0.447 ± 0.2:
GYVPMYVCLSPYHKTVLWLS

Amyloid nucleation score, 2.44 ± 0.078:
HGGIHCYFFYSYGDLEKEIL
